According to patent US12397052B2, “Microcapsule-based vaccine” (INSTITUTE OF PROCESS ENGINEERING, CHINESE ACADEMY OF …, priority 2018, dated 2025):

Experiments:
OVA+ cells = assay: Antigen utilization in thigh muscle by flow cytometry (OVA+ cells); type: in vivo, C57BL/6 mice; settings: 5th day
Method: Five days later, the mice were killed, and their muscle tissues containing the microspheres were taken out, cut into small pieces with scissors, ground into a suspension, resuspended in PBS at 4° C., and centrifuged to remove the supernatant. To the centrifugal residue, was added 1 mL of a solution of an enzyme mixture (made by dissolving collagenase D and 100 U/mL recombinant DNase I in RPMI 1640 medium) at a concentration of 1 mg/mL. The mixture was incubated at 37° C. for 30 min, washed with PBS, and subjected to filtration with a 20 μm cell sieve to get rid of impurities, giving a single-cell suspension. […] The BD LSRFortessa flow cytometer was used to detect OVA^+ cells, CD 11c^+OVA^+ cells, and F4/80^+OVA^+ cells, and the data was analyzed using the Flowjo software.
In the embedding group, as a result of the excellent antigen-retention capability and antigen-release capability, the number of OVA^+ cells increased by about 50 times, the endocytosis of OVA increased by 4 times or more, and the utilization of the antigen increased by 200 times or more. […] The utilization of the antigen was calculated by normalizing the number of OVA^+ cells multiplied by the fluorescence intensity using the utilization of the antigen of the simple antigen group.

E.G7 tumor cells = assay: E.G7 lymphoma solid tumor model
Method: To construct E.G7 tumor-bearing mice models, 1×10^6 E.G7 tumor cells (purchased from ATCC) were injected into 6-8 weeks old female C57BL/6 mice (purchased from Beijing Weitonglihua Experimental Animal Co., Ltd.) on the armpit, and the tumor-bearing mice were randomly divided into groups each consisting of 6 mice. The mice were vaccinated when the tumor grew to a volume of 50-60 mm^3 on the 4th day. […] The volume of the tumor was calculated by this formula: V=1/2×L×W^2 (where L is the length of the tumor, and W is the width of the tumor).

Molecule	fluorescence intensity of intracellular OVA (OVA+ cells)	number of OVA+ cells (OVA+ cells)	25-day survival rate (SR) (E.G7 tumor cells; mouse, in vivo) [%]	tumor growth (E.G7) (E.G7 tumor cells; vaccinated on 4th day)
simple antigen group: preparation of a simple fluorescent antigen (OVA labeled with dye Cy5), no carrier (protein, UniProt P01012 2-386, looked up, Cy5 dye label, preparation of a simple fluorescent antigen (OVA labeled with dye Cy5), no carrier) Ovalbumin: GSIGAASMEFCFDVFKELKVHHANENIFYCPIAIMSALAMVYLGAKDSTRTQINKVVRFDKLPGFGDSIEAQCGTSVNVHSSLRDILNQITKPNDVYSFSLASRLYAEERYPILPEYLQCVKELYRGGLEPINFQTAADQARELINSWVESQTNGIIRNVLQPSSVDSQTAMVLVNAIVFKGLWEKAFKDEDTQAMPFRVTEQESKPVQMMYQIGLFRVASMASEKMKILELPFASGTMSMLVLLPDEVSGLEQLESIINFEKLTEWTSSNVMEERKIKVYLPRMKMEEKYNLTSVLMAMGITDVFSSSANLSGISSAESLKISQAVHAAHAEINEAGREVVGSAEAGVDAASVSEEFRADHPFLFCIKHIATNAVLFFGRCVSP	very weak	small	–	–
OVA: free OVA antigen (Sigma), low-dose several times or high-dose (60 μg) a single time (protein, UniProt P01012 2-386, looked up) Ovalbumin: GSIGAASMEFCFDVFKELKVHHANENIFYCPIAIMSALAMVYLGAKDSTRTQINKVVRFDKLPGFGDSIEAQCGTSVNVHSSLRDILNQITKPNDVYSFSLASRLYAEERYPILPEYLQCVKELYRGGLEPINFQTAADQARELINSWVESQTNGIIRNVLQPSSVDSQTAMVLVNAIVFKGLWEKAFKDEDTQAMPFRVTEQESKPVQMMYQIGLFRVASMASEKMKILELPFASGTMSMLVLLPDEVSGLEQLESIINFEKLTEWTSSNVMEERKIKVYLPRMKMEEKYNLTSVLMAMGITDVFSSSANLSGISSAESLKISQAVHAAHAEINEAGREVVGSAEAGVDAASVSEEFRADHPFLFCIKHIATNAVLFFGRCVSP	–	–	17	not inhibited
